This note sets out measurements from patent US20050112119A1 (Takeda / Millennium, published 2005).

Test [1] deals with T1, human CXCR3 (human, UniProt P49682 1-368).
T1 sequence: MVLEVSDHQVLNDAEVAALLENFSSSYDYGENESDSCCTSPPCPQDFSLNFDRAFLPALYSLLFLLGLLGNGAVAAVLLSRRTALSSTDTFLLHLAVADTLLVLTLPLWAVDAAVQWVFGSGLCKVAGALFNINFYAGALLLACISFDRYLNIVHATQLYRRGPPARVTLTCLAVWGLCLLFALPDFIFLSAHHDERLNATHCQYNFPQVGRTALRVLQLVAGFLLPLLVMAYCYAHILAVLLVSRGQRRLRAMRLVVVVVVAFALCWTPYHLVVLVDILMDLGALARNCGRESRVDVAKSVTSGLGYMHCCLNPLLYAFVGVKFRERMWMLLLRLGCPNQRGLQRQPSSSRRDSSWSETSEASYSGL
In words: cell-based or functional assay.

In a further test the target is T2, human CCR3 (human, UniProt P51677 1-355).
T2 construct: whole, on cells
T2 sequence (looked up): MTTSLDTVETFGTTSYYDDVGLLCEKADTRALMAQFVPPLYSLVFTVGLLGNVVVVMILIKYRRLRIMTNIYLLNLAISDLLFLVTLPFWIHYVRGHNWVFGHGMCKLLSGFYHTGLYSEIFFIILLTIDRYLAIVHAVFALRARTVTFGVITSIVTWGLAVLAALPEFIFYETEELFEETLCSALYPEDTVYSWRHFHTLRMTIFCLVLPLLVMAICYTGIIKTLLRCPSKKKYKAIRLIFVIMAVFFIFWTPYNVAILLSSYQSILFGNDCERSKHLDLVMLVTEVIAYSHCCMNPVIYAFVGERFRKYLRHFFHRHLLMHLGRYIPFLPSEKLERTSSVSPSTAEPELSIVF
Briefly: flow cytometry, hybridoma supernatant on L1.2 transfectants, PE anti-human IgG. On the procedure:
(§1) Three days after the last immunization, five animals were sacrificed, their spleen cells were isolated, combined and used to produce hybridomas by standard methods. About 3×10⁸ spleen cells were fused with 5- to 10-fold fewer SP2/0-Ag14 fusion partner cells (ATCC, No. CRL-1581, Manassas, Va.) or P3X63Ag8.653 fusion partner cells (ATCC, No. CRL-1580, Manassas, Va.), by brief resuspension in polyethylene glycol 1500 (50% in 75 mM HEPES, Boehringer-Mannheim, now Roche Applied Science, Indianapolis, Ind.), to generate the hybridomas. After fusion, the cells were selected by incubation for two weeks in hypoxanthine, aminopterin, thymidine (HAT) medium specificity was assessed by staining CXCR3 transfectants, control L1.2 cells and L1.2 cells that expressed human CCR1, CCR2, CCR3, CCR4, CCR5, CXCR1, CXCR2, or CXCR4 (Qin et al. (1998) J. Clin. Invest. 101:746-54). The binding of antibody from the hybridoma supernatants to receptor transfectants was detected by phycoerythrin-conjugated anti-human IgG with analysis by flow cytometry. Positive wells were those that contained supernatant which stained the CXCR3 transfectants, but not L1.2 cells which expressed the other chemokine receptors tested. Positive wells were subcloned to yield hybridoma cell lines. Hybridoma cultures were maintained in DMEM with 10% fetal calf serum, 10 units/ml interleukin-6, 0.1% L-glutamine, and 0.1% penicillin/streptomycin.

For another test, the target named is T3, human CCR4 (human, UniProt P51679 1-360).
T3 construct: whole, on cells
T3 sequence (looked up): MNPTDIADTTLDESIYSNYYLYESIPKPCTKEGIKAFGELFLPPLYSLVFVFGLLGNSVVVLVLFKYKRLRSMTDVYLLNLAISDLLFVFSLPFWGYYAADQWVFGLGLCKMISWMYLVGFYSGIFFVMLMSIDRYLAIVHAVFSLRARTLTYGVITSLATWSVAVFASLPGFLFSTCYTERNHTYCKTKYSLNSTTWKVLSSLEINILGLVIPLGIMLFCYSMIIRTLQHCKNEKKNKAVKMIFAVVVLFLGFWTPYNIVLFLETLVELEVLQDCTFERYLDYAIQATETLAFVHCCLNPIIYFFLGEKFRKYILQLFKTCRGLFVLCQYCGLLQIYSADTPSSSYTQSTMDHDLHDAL
The test is described as above. On the procedure:
as §1

The target in a further test is T4, human CCR5 (human, UniProt P51681 1-352).
T4 construct: whole, on cells
T4 sequence (P51681 whole entry): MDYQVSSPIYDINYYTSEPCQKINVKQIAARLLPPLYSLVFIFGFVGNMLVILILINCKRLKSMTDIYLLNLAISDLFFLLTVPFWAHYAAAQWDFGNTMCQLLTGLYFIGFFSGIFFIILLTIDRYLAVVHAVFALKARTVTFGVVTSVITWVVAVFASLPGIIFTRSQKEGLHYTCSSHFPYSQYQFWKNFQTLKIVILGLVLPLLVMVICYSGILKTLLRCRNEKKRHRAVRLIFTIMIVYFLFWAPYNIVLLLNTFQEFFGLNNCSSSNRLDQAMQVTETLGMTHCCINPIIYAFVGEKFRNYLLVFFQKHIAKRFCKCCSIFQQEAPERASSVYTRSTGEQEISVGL
The test is described as above. On the procedure: as §1

The next test concerns the target T5, human CXCR1 (human, UniProt P25024 1-350).
T5 construct: whole, on cells
T5 sequence (looked up): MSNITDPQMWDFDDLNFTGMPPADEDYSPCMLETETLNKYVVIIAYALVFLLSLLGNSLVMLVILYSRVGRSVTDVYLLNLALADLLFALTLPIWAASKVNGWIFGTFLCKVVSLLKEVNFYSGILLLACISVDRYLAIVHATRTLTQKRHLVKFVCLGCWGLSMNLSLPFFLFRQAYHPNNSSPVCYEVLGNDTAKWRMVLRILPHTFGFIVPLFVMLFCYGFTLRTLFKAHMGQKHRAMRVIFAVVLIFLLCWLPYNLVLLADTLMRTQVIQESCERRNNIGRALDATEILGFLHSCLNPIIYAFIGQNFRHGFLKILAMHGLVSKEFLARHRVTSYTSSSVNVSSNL
The description is as above. On the procedure:
as §1

The next test deals with T6, human CXCR2 (human, UniProt P25025 1-360).
T6 construct: whole, on cells
T6 sequence (looked up): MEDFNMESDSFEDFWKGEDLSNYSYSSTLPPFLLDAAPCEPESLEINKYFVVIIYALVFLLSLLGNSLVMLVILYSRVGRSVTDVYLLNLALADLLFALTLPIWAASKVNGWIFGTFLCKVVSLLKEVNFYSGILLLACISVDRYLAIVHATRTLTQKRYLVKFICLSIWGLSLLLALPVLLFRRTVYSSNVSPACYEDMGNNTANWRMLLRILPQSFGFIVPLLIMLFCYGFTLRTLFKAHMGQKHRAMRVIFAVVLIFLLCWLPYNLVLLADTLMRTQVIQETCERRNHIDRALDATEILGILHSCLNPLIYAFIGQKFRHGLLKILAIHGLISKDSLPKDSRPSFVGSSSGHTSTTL
Described as above. On the procedure:
as §1

The target of another test is T7, human CXCR4 (human, UniProt P61073 1-352).
T7 construct: whole, on cells
T7 sequence (P61073 whole entry): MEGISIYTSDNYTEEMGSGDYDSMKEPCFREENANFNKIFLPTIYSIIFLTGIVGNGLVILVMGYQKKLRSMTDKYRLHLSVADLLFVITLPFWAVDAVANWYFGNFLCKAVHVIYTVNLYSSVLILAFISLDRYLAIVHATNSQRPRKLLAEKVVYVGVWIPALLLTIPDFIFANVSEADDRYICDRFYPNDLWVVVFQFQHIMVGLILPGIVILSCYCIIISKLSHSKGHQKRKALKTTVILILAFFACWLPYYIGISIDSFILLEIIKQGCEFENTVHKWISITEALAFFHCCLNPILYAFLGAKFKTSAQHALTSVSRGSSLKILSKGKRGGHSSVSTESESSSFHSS
The test is described as above. As for the experimental part: as §1

For a further test, the target named is T8, human CCR1 (human, UniProt P32246 1-355).
T8 construct: whole, on cells
T8 sequence (looked up): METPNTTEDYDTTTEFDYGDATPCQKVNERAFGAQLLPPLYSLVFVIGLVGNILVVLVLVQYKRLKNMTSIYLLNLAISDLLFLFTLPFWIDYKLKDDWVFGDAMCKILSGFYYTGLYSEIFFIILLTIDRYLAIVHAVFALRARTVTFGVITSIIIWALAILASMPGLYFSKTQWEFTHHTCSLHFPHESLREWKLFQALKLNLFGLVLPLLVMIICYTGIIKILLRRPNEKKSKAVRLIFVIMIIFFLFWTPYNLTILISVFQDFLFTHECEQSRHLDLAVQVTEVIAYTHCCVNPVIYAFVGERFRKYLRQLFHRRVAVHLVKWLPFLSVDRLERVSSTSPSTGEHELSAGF
Described as above. As for the experimental part:
as §1

The target of another test is T9, human CCR2 (human, UniProt P41597 1-374).
T9 construct: whole, on cells
T9 sequence (P41597 whole entry): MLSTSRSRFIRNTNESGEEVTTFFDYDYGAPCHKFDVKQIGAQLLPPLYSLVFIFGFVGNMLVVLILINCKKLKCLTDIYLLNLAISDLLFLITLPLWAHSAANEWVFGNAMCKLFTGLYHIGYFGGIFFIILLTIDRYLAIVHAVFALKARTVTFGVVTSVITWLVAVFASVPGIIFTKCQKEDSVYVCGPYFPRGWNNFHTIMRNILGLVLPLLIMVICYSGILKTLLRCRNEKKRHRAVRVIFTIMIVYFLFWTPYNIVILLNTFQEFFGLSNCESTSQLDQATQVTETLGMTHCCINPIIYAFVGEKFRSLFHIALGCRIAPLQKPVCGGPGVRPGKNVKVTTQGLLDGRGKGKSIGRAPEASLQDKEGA
The test is described as above. On the procedure: as §1

The target in test [2] is T1, human CXCR3. In words: flow cytometry on CXCR3 L1.2 transfectants, biotinylated antibody, streptavidin-PE; 100% is the fluorescence at 10 µg/ml. As for the experimental part: The strength of human monoclonal antibody 5H7 and human monoclonal antibody 7H5 binding to CXCR3 was measured using CXCR3 transfectants. The mean streptavidin-PE fluorescence detected when 10 μg/ml of each purified mAb was used to stain CXCR3 transfectants was used as 100% fluorescence.

Positions count from the first letter of the chain named.

B1: human monoclonal antibody 5H7 (antibody, human IgG2, V domains shown)
VH: QVQVVQSGAEVKKPGASVKVSCKTSGYTFTGNYIHWVRQAPGQGLEWMGWINPNSGGTNFAQKFQGRVTMTRDTSITTAYMVLSRLRSDDTAVYYCARGGNNMIVVARGYYGMDVWGQGTTVTVSS
VL: DIQMTQSPSSLSASVGDRVTITCRASQSIGRYLNWYQQKPGKAPKLLIYGASSLQSGVPSRFSGSGSGTEFTLTISSLQPEDFATYYCQQSFRVPISFGQGTRLEIK
notes: The hybridoma antibody as tested is human IgG2, kappa; also called human mAb 5H7; antibody of hybridoma LS328-5H7-2-6 (ATCC PTA-5388)
For B1, in the test with human CXCR3 [1], the “IC50 of inhibition of chemotaxis of CXCR3 transfectants toward I-TAC” value was found to be 1.2 µg/mL. Further, the “IC50 of inhibition of chemotaxis of CXCR3 transfectants toward IP-10” value with human CXCR3 [1] came to 0.7 µg/mL. The “IC50 of inhibition of chemotaxis of CXCR3 transfectants toward MIG” value with human CXCR3 [1] amounted to 2.9 µg/mL. Also, the binding result in the test with human CCR3, with human CCR4, with human CCR5, with human CXCR1, with human CXCR2 and in the test with human CXCR4 was “no binding” throughout. The binding result in the test with human CCR1 and in the test with human CCR2 was “no binding” each time. Further, the EC50 in the test with human CXCR3 [2] is 0.5 nM.

B2: human monoclonal antibody 7H5 (antibody, human IgG2, V domains shown)
VH: B1 VH with T24A, N32Y, N54D, F60Y, T77S, S84N, R98K, N101I
VL: B1 VL with A25T, L73F, T74I, S97T
notes: The hybridoma antibody as tested is human IgG2, kappa; also called human mAb 7H5; antibody of hybridoma LS329-7H5-2-19-7 (ATCC PTA-5389)
Regarding B2, the binding result in the test with human CCR3, with human CCR4, with human CCR5, with human CXCR1, with human CXCR2 and with human CXCR4 was “no binding” throughout. The binding result in the test with human CCR1 and in the test with human CCR2 was “no binding” in each case. The response with human CXCR3 [2] was half-maximal at 1.2 nM (EC50).
